Source: patent US20260209372A1

Molecular target: recombinant human CD30L protein (human) (UniProt P32971)
Test: ELISA

Sequence of recombinant human CD30L protein (human) (P32971 63-234 limits assumed): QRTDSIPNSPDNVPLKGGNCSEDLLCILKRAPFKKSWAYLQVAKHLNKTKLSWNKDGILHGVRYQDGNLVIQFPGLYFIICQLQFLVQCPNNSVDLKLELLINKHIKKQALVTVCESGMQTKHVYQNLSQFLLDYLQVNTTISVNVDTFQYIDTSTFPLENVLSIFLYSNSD

B1: Clone 59 (antibody, V domains shown)
VH: QVQLVESGGGVVQPGRSLRLSCAASGFTFSIYGMHWVRQAPGKGLEWVAVIWYDGSNKYYVDSVKGRFTISRDNSKNSLYLQMNSLRAEDTAVYYCAREGNLFDYWGQGTLVTVSS
VL: DIQMTQSPSTLSASVGDRVTITCRASQSISSWLAWYQQKPGKAPKLLIYKASSLESGVPSRFSGSGSGTEFTLTISSLKPDDFATYYCQQYKSYYTFGQGTKLEIK
OD: 0.06 OD
